This note sets out measurements from patent US20200207829.

In one series the target is T1, TMt-NLS-dCas9VP64.
T1 chain: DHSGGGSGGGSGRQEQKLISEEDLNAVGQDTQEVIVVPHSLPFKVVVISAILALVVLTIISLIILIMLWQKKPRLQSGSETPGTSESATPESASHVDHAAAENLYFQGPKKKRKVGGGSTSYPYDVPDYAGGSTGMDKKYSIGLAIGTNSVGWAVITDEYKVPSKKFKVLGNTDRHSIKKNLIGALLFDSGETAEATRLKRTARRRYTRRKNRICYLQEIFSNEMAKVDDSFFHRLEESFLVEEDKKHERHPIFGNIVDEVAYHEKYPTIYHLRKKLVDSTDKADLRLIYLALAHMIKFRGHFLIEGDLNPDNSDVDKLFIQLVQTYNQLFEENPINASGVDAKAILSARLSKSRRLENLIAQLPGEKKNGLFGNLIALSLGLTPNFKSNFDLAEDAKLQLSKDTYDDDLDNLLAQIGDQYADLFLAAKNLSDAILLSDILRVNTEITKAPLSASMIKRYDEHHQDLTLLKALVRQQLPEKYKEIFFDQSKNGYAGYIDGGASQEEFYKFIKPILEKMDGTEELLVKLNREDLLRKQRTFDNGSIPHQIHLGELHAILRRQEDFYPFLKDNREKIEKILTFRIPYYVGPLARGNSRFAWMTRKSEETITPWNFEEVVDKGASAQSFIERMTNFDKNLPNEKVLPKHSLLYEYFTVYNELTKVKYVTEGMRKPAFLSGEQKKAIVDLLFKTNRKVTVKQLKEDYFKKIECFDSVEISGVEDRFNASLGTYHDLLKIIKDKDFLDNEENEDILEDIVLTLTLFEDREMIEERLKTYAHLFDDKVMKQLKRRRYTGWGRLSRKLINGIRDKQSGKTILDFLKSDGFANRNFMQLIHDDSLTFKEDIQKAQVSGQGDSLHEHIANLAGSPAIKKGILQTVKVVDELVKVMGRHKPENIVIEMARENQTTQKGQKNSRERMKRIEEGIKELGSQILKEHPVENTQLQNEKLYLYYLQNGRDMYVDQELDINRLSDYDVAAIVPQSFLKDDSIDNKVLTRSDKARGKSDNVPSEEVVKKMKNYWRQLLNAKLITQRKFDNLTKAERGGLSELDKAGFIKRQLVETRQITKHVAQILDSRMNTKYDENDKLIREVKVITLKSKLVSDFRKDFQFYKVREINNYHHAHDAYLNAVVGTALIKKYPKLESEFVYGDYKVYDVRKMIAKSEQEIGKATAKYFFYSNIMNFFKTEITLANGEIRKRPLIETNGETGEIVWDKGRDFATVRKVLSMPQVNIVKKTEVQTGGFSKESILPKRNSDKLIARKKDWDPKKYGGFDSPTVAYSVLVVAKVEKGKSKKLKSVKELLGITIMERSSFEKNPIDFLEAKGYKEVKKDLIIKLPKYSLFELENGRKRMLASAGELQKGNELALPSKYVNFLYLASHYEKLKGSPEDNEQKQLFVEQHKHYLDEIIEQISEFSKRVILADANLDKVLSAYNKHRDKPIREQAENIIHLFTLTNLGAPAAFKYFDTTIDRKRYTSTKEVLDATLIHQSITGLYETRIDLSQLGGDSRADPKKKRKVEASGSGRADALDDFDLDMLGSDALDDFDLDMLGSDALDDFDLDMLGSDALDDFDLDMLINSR

B1: TEV protease (protein)
chain: MHHHHHHHHHGESLFKGPRDYNPISSTICHLTNESDGHTTSLYGIGFGPFIITNKHLFRRNNGTLLVQSLHGVFKVKNTTTLQQHLIDGRDMIIIRMPKDFPPFPQKLKFREPQREERICLVTTNFQTKSMSSMVSDTSCTFPSSDGIFWKHWIQTKDGQCGSPLVSTRDGFIVGIHSASNFTNTNNYFTSVPKNFMELLTNQEAQQWVSGWRLNADSVLWGGHKVFMVKPEEPFQPVKEATQLMNRRRRP
Consider B1, for which, in the series with TMt-NLS-dCas9VP64, the “anti-HA immunofluorescence, localisation of dCas9-VP64” value was “co-expression of TEV protease resulted in highly efficient release of dCas9-VP64 from the membrane tether and subsequent nuclear localization”. In the series with TMt-NESΔTCS-dCas9VP64, the EYFP activation score entry is given as “did not show any activity above baseline levels”.
